Reference: patent publication US20260226176A1 (THERANOVIR, published 2026)
Read-outs that look alike come from different tables or passages of the source. Values belong to the molecule of their own block, whether it stands above or below them.

Columns and labels:
[1] = target: T1, native human NRP-1 on the cell surface (human, UniProt O14786 22-923); assay: flow cytometry, CTC cells mix, 50 ug/ml
T1 construct: whole, on cells; endogenous protein; isoform and glycosaminoglycan state on the cells not defined; also called native NRP-1 on MDA-MB-231 cells; native form of NRP-1 protein on the CTCs cell surface

[2] = target: T1, native human NRP-1 on the cell surface; assay: flow cytometry, MDA-MB-231 cells, 10 ug/ml, +heparinase
[3] = target: T1, native human NRP-1 on the cell surface; assay: flow cytometry, MDA-MB-231 cells, 10 ug/ml, -heparinase
[4] = target: T1, native human NRP-1 on the cell surface; assay: flow cytometry, CTC cells mix, 25 ug/ml
[5] = target: T1, native human NRP-1 on the cell surface; assay: flow cytometry, CTC cells mix, 10 ug/ml
[6] = target: T1, native human NRP-1 on the cell surface; assay: flow cytometry, MDA-MB-231 cells, 40 ug/ml, +chondroitinase
[7] = target: T1, native human NRP-1 on the cell surface; assay: flow cytometry, MDA-MB-231 cells, 40 ug/ml, -chondroitinase
[8] = target: T2, NRP-1 peptide (Npep); assay: ELISA, antibody 10 µg/ml, 2 µg immobilised Npep
T2 sequence (peptide): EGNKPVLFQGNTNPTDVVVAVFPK

[9] = target: recombinant human NRP-1 (3870-N1-025, Bio-Techne) (human) (UniProt O14786); assay: ELISA, antibody 10 µg/ml, 1 µg immobilised human NRP-1
[10] = target: recombinant murine NRP-1 (5994-N1-050, Bio-Techne) (murine) (UniProt P97333); assay: ELISA, antibody 10 µg/ml, 1 µg immobilised murine NRP-1
Sequence of recombinant murine NRP-1 (5994-N1-050, Bio-Techne) (murine) (P97333 22-856): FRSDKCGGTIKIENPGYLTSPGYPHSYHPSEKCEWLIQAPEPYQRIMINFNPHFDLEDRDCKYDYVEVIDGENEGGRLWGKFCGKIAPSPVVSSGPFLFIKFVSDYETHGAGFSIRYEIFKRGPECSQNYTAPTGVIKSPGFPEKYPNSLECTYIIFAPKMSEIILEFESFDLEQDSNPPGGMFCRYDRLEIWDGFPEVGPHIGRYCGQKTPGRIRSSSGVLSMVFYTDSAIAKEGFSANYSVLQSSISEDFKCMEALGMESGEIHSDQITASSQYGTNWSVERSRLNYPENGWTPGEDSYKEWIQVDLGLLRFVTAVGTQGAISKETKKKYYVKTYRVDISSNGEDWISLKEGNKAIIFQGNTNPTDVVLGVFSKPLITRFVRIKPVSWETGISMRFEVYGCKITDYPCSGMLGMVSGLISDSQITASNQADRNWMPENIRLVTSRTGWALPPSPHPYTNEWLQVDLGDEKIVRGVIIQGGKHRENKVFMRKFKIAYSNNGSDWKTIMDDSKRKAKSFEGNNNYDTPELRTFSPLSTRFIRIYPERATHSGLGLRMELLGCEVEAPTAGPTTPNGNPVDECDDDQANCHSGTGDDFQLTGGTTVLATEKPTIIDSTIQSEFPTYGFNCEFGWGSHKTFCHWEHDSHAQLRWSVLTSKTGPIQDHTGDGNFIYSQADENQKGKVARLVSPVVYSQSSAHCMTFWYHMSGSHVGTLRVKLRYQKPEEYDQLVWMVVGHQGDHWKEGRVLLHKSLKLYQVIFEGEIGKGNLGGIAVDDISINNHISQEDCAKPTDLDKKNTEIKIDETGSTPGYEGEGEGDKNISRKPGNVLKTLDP

[11] = target: native human NRP-1 on the cell surface (human) (UniProt O14786); assay: flow cytometry, MDA-MB-231 cells, 40 ug/ml, with against without chondroitinase
[12] = target: native human NRP-1 on the cell surface (human) (UniProt O14786); assay: flow cytometry, MDA-MB-231 cells, 10 ug/ml, with against without heparinase
[13] = target: native human NRP-1 on the cell surface (human) (UniProt O14786); assay: flow cytometry, MDA-MB-231 cells, 10 ug/ml, +heparinase
[14] = target: native human NRP-1 on the cell surface (human) (UniProt O14786); assay: flow cytometry, MDA-MB-231 cells, 10 ug/ml, -heparinase
[15] = target: native human NRP-1 on the cell surface (human) (UniProt O14786); assay: flow cytometry, MDA-MB-231 cells, 40 ug/ml, +chondroitinase
[16] = target: native human NRP-1 on the cell surface (human) (UniProt O14786); assay: flow cytometry, MDA-MB-231 cells, 40 ug/ml, -chondroitinase
[17] = target: T1, native human NRP-1 on the cell surface; assay: flow cytometry, MDA-MB-231 cells, 40 ug/ml, with against without chondroitinase
Protocol: (§1) Chondroitinase (C2905, Sigma) was reconstituted in a 0.01% BSA aqueous solution. The MDA-MB-231 cells were treated with chondroitinase (1 U/ml) for 2 hours at 37° C. The cells were detached using cell dissociation solution non-enzymatic (C5914, Sigma). 300,000 cells per condition were washed with 2% FBS in PBS and then incubated with different antibodies of interest or their respective isotype controls at 40 μg/ml for 30 min at 4° C. After wash, an Alexa 488-conjugated anti-human immunoglobulin antibody (20022-1, Biotium) was added at 10 μg/ml for 30 min at 4° C. After a final wash, fluorescence, size and granularity of cells were measured by the LSR Fortessa cytometer (BD Biosciences).

[18] = target: T1, native human NRP-1 on the cell surface; assay: flow cytometry, MDA-MB-231 cells, 10 ug/ml, with against without heparinase
[19] = target: T3, NRP-1 peptide (Npep); assay: ELISA, antibody 10 µg/ml, 2 µg immobilised Npep
T3 construct: also called synthetic peptide Npep
T3 peptide: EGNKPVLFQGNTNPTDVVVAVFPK

[20] = target: T1, native human NRP-1 on the cell surface; assay: flow cytometry, MDA-MB-231 cells, 10 ug/ml, +heparinase; remark: listed apart in the source
[21] = target: T1, native human NRP-1 on the cell surface; assay: flow cytometry, MDA-MB-231 cells, 10 ug/ml, -heparinase; remark: listed apart in the source
[22] = target: T1, native human NRP-1 on the cell surface; assay: flow cytometry, MDA-MB-231 cells, 40 ug/ml, -chondroitinase; remark: listed apart in the source
Protocol: as §1

[23] = target: T4, recombinant human NRP-1 (3870-N1-025, Bio-Techne) (human, UniProt O14786 22-856); assay: ELISA, antibody 10 µg/ml, 1 µg immobilised human NRP-1
T4 construct: extracellular domain; bought protein; also called human recombinant NRP-1

[24] = target: T5, recombinant murine NRP-1 (5994-N1-050, Bio-Techne) (murine, UniProt P97333 22-856); assay: ELISA, antibody 10 µg/ml, 1 µg immobilised murine NRP-1
T5 construct: extracellular domain; bought protein; also called mouse recombinant NRP-1
T5 sequence (P97333 22-856): as the sequence (P97333 22-856) above

[25] = target: T1, native human NRP-1 on the cell surface; assay: flow cytometry, MDA-MB-231 cells, 40 ug/ml, +chondroitinase; remark: listed apart in the source
Protocol: as §1

- percent of bound cells [1]: 14.4%
- percentage of binding [2]: 0.28%
- percentage of binding [3]: 0.086%
- percent of bound cells [4]: 6.66%
- percent of bound cells [5]: 3.65%
- percentage of binding [6]: 0.66%
- percentage of binding [7]: 0.45%
Molecule: mIgG2b isotype control (antibody)

- percent of bound cells [1]: 4.04%
- Absorbance [8]: 0.055
- percentage of binding [2]: 0.24%
- percentage of binding [3]: 0.2%
- percent of bound cells [4]: 3.3%
- Absorbance [9]: 0.073
- percent of bound cells [5]: 2.04%
- percentage of binding [7]: 0.47%
- Absorbance [10]: 0.064
Molecule: hIgG4 isotype control (antibody)

- Absorbance [8]: 0.05
- percentage of binding [2]: 0.14%
- percentage of binding [3]: 0.17%
- Absorbance [9]: 0.073
- percentage of binding [6]: 0.063%
- percentage of binding [7]: 0.1%
- Absorbance [10]: 0.084
Molecule: hIgG1 isotype control (antibody)

- delta (% of control) [11]: -0.1%
- delta (% of control) [12]: 1.1%
- Absorbance [8]: 0.063
- percentage of binding [13]: 97.7%
- percentage of binding [14]: 96.6%
- Absorbance [9]: 0.407
- percentage of binding [15]: 99.9%
- percentage of binding [16]: 100%
- Absorbance [10]: 0.431
B1: a-NRP1_SEM (antibody, from another filing, V domains shown)
VH: EVQLVESGGGLVQPGGSLRLSCAASGFSFSSEPISWVRQAPGKGLEWVSSITGKNGYTYYADSVKGRFTISADTSKNTAYLQMNSLRAEDTAVYYCARWGKKVYGMDVWGQGTLVTVSS
VL: DIQMTQSPSSLSASVGDRVTITCRASQSISSYLAWYQQKPGKAPKLLIYGASSRASGVPSRFSGSGSGTDFTLTISSLQPEDFATYYCQQYMSVPITFGQGTKVEIKR

- delta (% of control) [17]: -14.1%
- delta (% of control) [18]: -3.42%
- Absorbance [19]: 0.475
- percentage of binding [20]: 9.88%
- percentage of binding [21]: 13.3%
- percentage of binding [22]: 75.6%
- Absorbance [23]: 0.59
- Absorbance [24]: 0.412
- percentage of binding [25]: 61.5%
B2: variant 8 a-NRP1_LEP n° 1 (antibody, V domains shown)
VH: EVQLVESGGGLVQPGGSLRLSCAASGFTFSSYSMHWVRQAPGKGLEWVSYISSGSSTIHYADSVKGRFTISRDNAKNSLYLQMNSLRAEDTAVYYCARRHYGSSRYWYFDVWGQGTTVTVSS
VL: EIVLTQSPATLSLSPGERATLSCRASQSVKSYLAWYQQKPGQAPRLLIYYASSRATGIPARFSGSGSGTDFTLTISSLEPEDFAVYYCQQYSESPYTFGQGTKLEIK
notes: humanized variant of 21B10; isotype control hIgG4; also called Var8; variant no 8

- delta (% of control) [17]: -16.2%
- delta (% of control) [18]: -1.6%
- Absorbance [19]: 0.684
- percentage of binding [20]: 11.5%
- percentage of binding [21]: 13.1%
- percentage of binding [22]: 85.3%
- Absorbance [23]: 0.799
- Absorbance [24]: 0.72
- percentage of binding [25]: 69.1%
B3: variant 6 a-NRP1_LEP n° 1 (antibody, V domains shown)
VH: B2 VH
VL: DIQMTQSPSTLSASVGDRVTITCRASQSIKSYLAWYQQKPGKAPKLLIYYASSLASGVPSRFSGSGSGTEFTLTISSLQPDDFATYYCQQYGESSYTFGQGTKLEIK
notes: humanized variant of 21B10; isotype control hIgG4; also called Var6; variant no 6
